The target of the assay is Spike. In words: SPR.

Sequence of human angiotensin converting enzyme 2 (Q9BYF1 20-611): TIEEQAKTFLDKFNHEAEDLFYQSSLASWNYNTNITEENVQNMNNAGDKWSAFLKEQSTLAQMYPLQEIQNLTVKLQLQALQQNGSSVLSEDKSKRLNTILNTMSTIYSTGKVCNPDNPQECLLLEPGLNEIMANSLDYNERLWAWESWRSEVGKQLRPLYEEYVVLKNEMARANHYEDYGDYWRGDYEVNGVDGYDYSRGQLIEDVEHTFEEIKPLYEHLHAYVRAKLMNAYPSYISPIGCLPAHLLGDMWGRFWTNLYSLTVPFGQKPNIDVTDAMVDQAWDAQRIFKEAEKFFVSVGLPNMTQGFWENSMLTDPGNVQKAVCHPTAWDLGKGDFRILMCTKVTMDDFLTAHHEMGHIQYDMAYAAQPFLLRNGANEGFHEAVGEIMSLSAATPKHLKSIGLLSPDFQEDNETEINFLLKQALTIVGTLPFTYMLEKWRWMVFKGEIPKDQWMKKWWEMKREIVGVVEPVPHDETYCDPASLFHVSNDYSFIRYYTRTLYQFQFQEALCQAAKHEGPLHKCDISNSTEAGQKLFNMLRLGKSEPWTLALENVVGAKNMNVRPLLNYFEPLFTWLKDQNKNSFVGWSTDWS

In turn, “human angiotensin converting enzyme 2 (from UniProt Q9BYF1-1 20-611) (receptor)” registered a Kd of 370 nM.

A word on the Kd: it is a measure of binding affinity in units of concentration.
